{"source": "patent US20060121045A1", "about": "(published 2006)", "key": {"[1]": {"target": "T1, anthrax protective antigen (PA) (Bacillus anthracis, UniProt P13423 30-764)", "T1 sequence (P13423 30-764 limits assumed)": "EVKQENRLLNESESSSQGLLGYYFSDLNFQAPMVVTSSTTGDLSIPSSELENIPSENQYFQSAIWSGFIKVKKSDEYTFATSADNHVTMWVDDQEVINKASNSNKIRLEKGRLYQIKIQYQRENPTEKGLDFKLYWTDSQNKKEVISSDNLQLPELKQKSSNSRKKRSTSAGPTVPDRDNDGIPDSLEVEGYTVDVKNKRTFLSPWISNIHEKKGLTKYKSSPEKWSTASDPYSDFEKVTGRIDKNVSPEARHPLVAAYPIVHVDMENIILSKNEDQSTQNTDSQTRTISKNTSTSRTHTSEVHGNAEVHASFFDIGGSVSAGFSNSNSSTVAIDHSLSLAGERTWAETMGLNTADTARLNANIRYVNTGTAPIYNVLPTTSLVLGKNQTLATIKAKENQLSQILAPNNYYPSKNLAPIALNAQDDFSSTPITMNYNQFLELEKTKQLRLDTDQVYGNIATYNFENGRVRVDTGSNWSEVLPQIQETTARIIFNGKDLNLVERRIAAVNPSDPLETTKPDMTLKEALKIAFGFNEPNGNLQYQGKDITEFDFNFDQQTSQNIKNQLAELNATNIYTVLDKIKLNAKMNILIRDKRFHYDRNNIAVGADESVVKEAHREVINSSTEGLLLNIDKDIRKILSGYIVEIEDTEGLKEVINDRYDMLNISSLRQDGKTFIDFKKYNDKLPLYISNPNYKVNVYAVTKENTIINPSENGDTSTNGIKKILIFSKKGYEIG", "assay": "SPR"}, "[2]": {"target": "T1, anthrax protective antigen (PA)", "assay": "SPR (Biacore 3000), PA down; antibody analyte"}, "[3]": {"target": "T1, anthrax protective antigen (PA)", "assay": "SPR (Biacore 3000), antibody down; PA analyte"}, "[4]": {"target": "T1, anthrax protective antigen (PA)", "assay": "not stated (presumably SPR)"}}, "data": [{"binder": "anti-PA 14B7 scFv (scFv) scFv: DIQMTQTTSSLSASLGDRVTISCRASQDIRNYLNWYQQKPDGTVKLLIYYTSRLQSGVPSRFSGSGSGTDYSLTISNQEQEDIGTYFCQQGNTLPWTFGGGTKLEIKRGGGGSGGGGSGGGGSGGGGSEVQLQQSGPELVKPGASVKISCKDSGYAFSSSWMNWVKQRPGQGLEWIGRIYPGDGDTNYNGKFKGKATLTADKSSSTAYMQLSSLTSVDSAVYFCARSGLLRYAMDYWGQGTSVTVSS", "values": [{"measurement": "Kd", "setting": "[1]", "value": 4.3, "unit": "nM"}, {"measurement": "koff", "setting": "[1]", "value": 0.003, "unit": "s⁻¹"}, {"measurement": "kon", "setting": "[1]", "value": 710000, "unit": "M⁻¹ s⁻¹"}]}, {"binder": "M18 scAb-PEG 20 kDa (scFv) scFv: DIQMTQTTSSLSASLGDRVTVSCRASQDIRNYLNWYQQKPDGTVKFLIYYTSRLQPGVPSRFSGSGSGTDYSLTINNLEQEDIGTYFCQQGNTPPWTFGGGTKLEIKRGGGGSGGGGSGGGGSGGGGSEVQLQQSGPELVKPGASVKISCKDSGYAFNSSWMNWVKQRPGQGLEWIGRIYPGDGDSNYNGKFEGKAILTADKSSSTAYMQLSSLTSVDSAVYFCARSGLLRYAMDYWGQGTSVTVSS", "values": [{"measurement": "Kd", "setting": "[2]", "value": 0.69, "unit": "nM"}, {"measurement": "kon", "setting": "[2]", "value": 100000, "unit": "M⁻¹ s⁻¹"}, {"measurement": "Kd", "setting": "[3]", "value": 0.025, "unit": "nM"}, {"measurement": "kon", "setting": "[3]", "value": 780000, "unit": "M⁻¹ s⁻¹"}]}, {"binder": "M18 scAb (scFv) scFv: DIQMTQTTSSLSASLGDRVTVSCRASQDIRNYLNWYQQKPDGTVKFLIYYTSRLQPGVPSRFSGSGSGTDYSLTINNLEQEDIGTYFCQQGNTPPWTFGGGTKLEIKRGGGGSGGGGSGGGGSGGGGSEVQLQQSGPELVKPGASVKISCKDSGYAFNSSWMNWVKQRPGQGLEWIGRIYPGDGDSNYNGKFEGKAILTADKSSSTAYMQLSSLTSVDSAVYFCARSGLLRYAMDYWGQGTSVTVSS", "values": [{"measurement": "Kd", "setting": "[1]", "value": 0.035, "unit": "nM"}, {"measurement": "koff", "setting": "[1]", "value": "4.2e-05", "unit": "s⁻¹"}, {"measurement": "kon", "setting": "[1]", "value": "1.2e+06", "unit": "M⁻¹ s⁻¹"}, {"measurement": "Kd", "setting": "[4]", "value": 0.054, "unit": "nM"}, {"measurement": "fold improvement of KD over the whole antibody to PA", "setting": "[4]", "value": "~5", "unit": "fold"}, {"measurement": "Kd", "setting": "[2]", "value": 0.044, "unit": "nM"}, {"measurement": "kon", "setting": "[2]", "value": "1.4e+06", "unit": "M⁻¹ s⁻¹"}, {"measurement": "Kd", "setting": "[3]", "value": 0.095, "unit": "nM"}, {"measurement": "kon", "setting": "[3]", "value": 930000, "unit": "M⁻¹ s⁻¹"}]}, {"binder": "M18 scAb-PEG 40 kDa (scFv) scFv: DIQMTQTTSSLSASLGDRVTVSCRASQDIRNYLNWYQQKPDGTVKFLIYYTSRLQPGVPSRFSGSGSGTDYSLTINNLEQEDIGTYFCQQGNTPPWTFGGGTKLEIKRGGGGSGGGGSGGGGSGGGGSEVQLQQSGPELVKPGASVKISCKDSGYAFNSSWMNWVKQRPGQGLEWIGRIYPGDGDSNYNGKFEGKAILTADKSSSTAYMQLSSLTSVDSAVYFCARSGLLRYAMDYWGQGTSVTVSS", "values": [{"measurement": "Kd", "setting": "[2]", "value": 2.6, "unit": "nM"}, {"measurement": "kon", "setting": "[2]", "value": 27000, "unit": "M⁻¹ s⁻¹"}, {"measurement": "Kd", "setting": "[3]", "value": 0.043, "unit": "nM"}, {"measurement": "kon", "setting": "[3]", "value": 870000, "unit": "M⁻¹ s⁻¹"}]}]}
